Measurements: ChEMBL document CHEMBL6087449, “Identification of an Isoxazole Derivative as an Antitubercular Compound for Targeting the FadD Enzymes of Mycobacterium tuberculosis” (J Med Chem, 2025)

Assays:
[1] = compound: Oc1c(Br)cc(Br)cc1-c1cc(C(F)(F)F)no1; assay: Binding affinity to Mycobacterium tuberculosis H37Rv recombinant FadD32 assessed as Km in presence of lauric acid by Michaelis-Menten plot analysis
[2] = compound: Oc1c(Br)cc(Br)cc1-c1cc(C(F)(F)F)no1; assay: Binding affinity to Mycobacterium tuberculosis H37Rv recombinant FadD32 assessed as Km in presence of ATP by Michaelis-Menten plot analysis

B1: Long-chain-fatty-acid--AMP ligase FadD32 (Mycobacterium tuberculosis (strain ATCC 25618 / H37Rv)), O53580 (protein)
chain: MFVTGESGMAYHNPFIVNGKIRFPANTNLVRHVEKWAKVRGDKLAYRFLDFSTERDGVARDILWSDFSARNRAVGARLQQVTQPGDRVAILCPQNLDYLISFFGALYSGRIAVPLFDPAEPGHVGRLHAVLDDCAPSTILTTTDSAEGVRKFIRARSAKERPRVIAVDAVPTEVAATWQQPEANEETVAYLQYTSGSTRIPSGVQITHLNLPTNVVQVLNALEGQEGDRGVSWLPFFHDMGLITVLLASVLGHSFTFMTPAAFVRRPGRWIRELARKPGETGGTFSAAPNFAFEHAAVRGVPRDDEPPLDLSNVKGILNGSEPVSPASMRKFFEAFAPYGLKQTAVKPSYGLAEATLFVSTTPMDEVPTVIHVDRDELNNQRFVEVAADAPNAVAQVSAGKVGVSEWAVIVDADTASELPDGQIGEIWLHGNNLGTGYWGKEEESAQTFKNILKSRISESRAEGAPDDALWVRTGDYGTYFKDHLYIAGRIKDLVIIDGRNHYPQDLECTAQESTKALRVGYAAAFSVPANQLPQTVFDDSHAGLKFDPEDTSEQLVIVGERAAGTHKLDHQPIVDDIRAAIAVGHGVTVRDVLLVSAGTIPRTSSGKIGRRACRAAYLDGSLRSGVGSPTVFATSD
Km [1]: 139 µM
Km [2]: 248 µM
